Measurements from paper PMC4323944 (Journal of molecular biology, 2014).

T1: T. maritima FliM middle domain (FliMM, residues 46-242) (Thermotoga maritima, UniProt Q9WZE6 46-242)
T1 sequence (looked up): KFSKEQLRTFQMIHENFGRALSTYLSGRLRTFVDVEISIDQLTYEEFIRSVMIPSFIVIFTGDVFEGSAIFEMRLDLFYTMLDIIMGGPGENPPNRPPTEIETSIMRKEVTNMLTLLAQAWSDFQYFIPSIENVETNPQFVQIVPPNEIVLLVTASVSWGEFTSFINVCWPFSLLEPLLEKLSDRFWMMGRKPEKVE


Tests used:
[1] = molecular target: the molecule itself; assay: pulsed dipolar ESR spectroscopy
SEC-MALS = molecular target: the molecule itself; assay: SEC-MALS
[2] = molecular target: T1, T. maritima FliM middle domain (FliMM, …); assay: crystal structure

Binder | binding result [1] | also measured
FliG Q129W 160-R1 (FliGMC Q129W K160C, MTSSL spin-labeled) (domain or fragment, Thermotoga maritima, UniProt Q9WY63 116-335, looked up, nitroxide side chain R1 (MTSSL on Cys 160)) PVQLVNFLQSEHPWTIAVVLSYLDPPVAAQILGALPEELQTEVLCRIALLERTSPEVVKEIERNLEKKISGFVSRTFSKVGGIDTAAEIMNNLDRTTEKKIMDKLVQENPELADEIRRRMFVFEDILKLDDRSIQLVLREVDTRDLALALKGASDELKEKIFKNMSKRAAALLKDELEYMGPVRLKDVEEAQQKIINIIRRLEEAGEIVIARGGGEELIM | binds | –
FliG 160-R1 (FliGMC K160C, MTSSL spin-labeled) (domain or fragment, Thermotoga maritima, UniProt Q9WY63 116-335, looked up, nitroxide side chain R1 (MTSSL on Cys 160)) PVQLVNFLQSEHPQTIAVVLSYLDPPVAAQILGALPEELQTEVLCRIALLERTSPEVVKEIERNLEKKISGFVSRTFSKVGGIDTAAEIMNNLDRTTEKKIMDKLVQENPELADEIRRRMFVFEDILKLDDRSIQLVLREVDTRDLALALKGASDELKEKIFKNMSKRAAALLKDELEYMGPVRLKDVEEAQQKIINIIRRLEEAGEIVIARGGGEELIM | – | stoichiometry N (SEC-MALS): 2
FliG 174-R1 (FliGMC K174C, MTSSL spin-labeled) (domain or fragment, Thermotoga maritima, UniProt Q9WY63 116-335, looked up, nitroxide side chain R1 (MTSSL on Cys 174)) PVQLVNFLQSEHPQTIAVVLSYLDPPVAAQILGALPEELQTEVLKRIALLERTSPEVVCEIERNLEKKISGFVSRTFSKVGGIDTAAEIMNNLDRTTEKKIMDKLVQENPELADEIRRRMFVFEDILKLDDRSIQLVLREVDTRDLALALKGASDELKEKIFKNMSKRAAALLKDELEYMGPVRLKDVEEAQQKIINIIRRLEEAGEIVIARGGGEELIM | binds | –
T. maritima FliG middle domain (FliGM, residues 117-195) (domain or fragment, Thermotoga maritima, UniProt Q9WY63 117-195, looked up) VQLVNFLQSEHPQTIAVVLSYLDPPVAAQILGALPEELQTEVLKRIALLERTSPEVVKEIERNLEKKISGFVSRTFSKV | – | binding result [2]: binds
